From patent US20030180295A1, “Angiocidin: a Cys-Ser-Val-Thr-Cys-Gly specific tumor cell adhesion receptor” (Philadelphia Health and Education Corporation, priority 1999, published 2003)
No end group written: not given here. *: point of attachment. Acm = CC(=O)NC*

How the values were obtained:
[1] = target: T1, biotin-angiocidin complex binding to TSP-1 (Homo sapiens, UniProt P55036, INS254GER); test: Biotin-avidin receptor binding assay: competition; conditions: Example 25, peptide 1 mg/ml, FIG. 32
T1 sequence (P55036 with tags, fused parts or gaps INS254GER): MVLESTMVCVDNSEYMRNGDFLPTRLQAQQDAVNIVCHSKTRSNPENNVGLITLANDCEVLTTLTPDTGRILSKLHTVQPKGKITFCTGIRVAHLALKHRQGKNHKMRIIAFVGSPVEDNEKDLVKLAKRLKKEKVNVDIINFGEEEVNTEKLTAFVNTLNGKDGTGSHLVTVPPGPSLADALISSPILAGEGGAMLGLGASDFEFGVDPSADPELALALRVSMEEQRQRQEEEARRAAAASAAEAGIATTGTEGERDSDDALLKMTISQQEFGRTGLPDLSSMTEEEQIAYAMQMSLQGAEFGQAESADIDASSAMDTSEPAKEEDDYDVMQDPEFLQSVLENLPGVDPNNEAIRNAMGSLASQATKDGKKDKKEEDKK
Experimental: In the following experiments, TSP-1 was covalently bound to a substrate, biotinylated angiocidin was added to the plate, and avidin-peroxidase was added to measure how much biotinylated angiocidin was attached to the TSP-1. The avidin-peroxidase was measured using a spectrophotometer at an absorbance of 450 nm.
Free angiocidin was added to the system to compete with the biotinylated angiocid in. […] Immobilized BSA was used as a negative control.
The TSP-1 peptide Cys-Ser-Val-Thr-Cys-Gly (SEQ ID NO: 1) was added to the system to compete with the TSP-1 on the plate for binding with the biotinylated angiocidin. The scrambled peptide Val-Cys-Thr-Gly-Ser-Cys (SEQ ID NO: 15) was used as a negative control and had no effect.
The avidin-biotin system discussed above was used to evaluate the competitive effect of various peptides on the binding of TSP-1 and angiocidin. […] The scrambled peptide Val-Cys-Thr-Gly-Ser-Cys-Gly (SEQ ID NO: 21) and the d-orientation peptide d-Cys-Ser-Val-Thr-Cys-Gly (SEQ ID NO: 22) were used as negative controls.

receptor-TSP-1 complex [2] = target: T2, receptor-TSP-1 complex (Homo sapiens, UniProt P55036, INS254GER); test: Affinity Sensor System: peptide competition of receptor binding to immobilized TSP-1; conditions: 10 fold molar excess of peptide
T2 construct: Full length cDNA cloned in the PBK-CMV vector was used as a template; 6xHis (pTrcHisA leader) (N); made in house; host or cells: bacteria (pTrcHisA vector)
T2 sequence (P55036 with tags, fused parts or gaps INS254GER): T1 sequence (P55036 with tags, fused parts or gaps INS254GER)
Experimental: (§1) Binding of undenatured (in the ligand blot protocol above, the receptor is denatured by SDS) recombinant receptor to TSP-1 was evaluated using the Affinity Sensor System, Cambridge, UK. This is an optical binding method that uses a cuvette to which either ligand or receptor is covalently coupled. A laser beam is used to detect bound proteins to the protein-derivatized cuvette surface. This method is highly sensitive and measures both the association and dissociation rate constants for ligand receptor interactions. The instrument assumes that one molecule of receptor binds one molecule of TSP-1 and calculates the dissociation constant (KD) according to the following relationships:
(§2) About 1 μg of TSP-1 was coupled to the cuvette through its amino groups to COOH groups on the cuvette surface. Unreacted groups on the cuvette surface were then blocked with ethanolamine and albumin. […] A dissociation constant of […] was calculated from a plot of the pseudo first order rate constant for association versus the concentration of the receptor, as shown in FIG. 7. Instrument response vs time readings shown in FIG. 8, where the instrument response is proportional to the concentration of receptor-TSP-1 complex, were used to plot the data points on FIG. 7.
(§3) […] The peptides used were Val-Cys-His-Ser-Lys-Thr-Arg (SEQ ID NO: 8), Val-Cys(Acm)-His-Ser-Lys-Thr-Arg (SEQ ID NO: 9), and Pro-His-Ser-Arg-Asn (SEQ ID NO: 10). The first two peptides are derived from the binding portion of the receptor, where it interacts with the Cys-Ser-Val-Thr-Cys-Gly (SEQ ID NO: 1) portion of the TSP-1 protein. The third peptide is a control.

receptor = target: T3, receptor (Homo sapiens, UniProt P55036, INS254GER); test: Affinity Sensor System: receptor binding to TSP-1 and Cys(Acm)-Ser-Val-Thr-Cys(Acm)-Gly; conditions: Example 8, FIG. 11
T3 construct: Full length cDNA cloned in the PBK-CMV vector was used as a template; 6xHis (pTrcHisA leader) (N); made in house; host or cells: bacteria (pTrcHisA vector)
T3 sequence (P55036 with tags, fused parts or gaps INS254GER): T1 sequence (P55036 with tags, fused parts or gaps INS254GER)
Experimental: as §1
The methodology set forth in Example 6 was followed except that TSP-1 and Cys(Acm)-Ser-Val-Thr-Cys(Acm)-Gly (SEQ ID NO: 6) were immobilized on cuvettes and the receptor was added to the cuvettes. The Acm version of the peptide was used to increase its stability in the experiment.

[3] = tested on: Bovine aortic endothelial cells (BAEC); test: ALAMAR BLUE cell viability assay; assay type: cell-based; conditions: TSP-1 at 20 μg/ml and 5 μg/ml
Experimental: (§4) Bovine aortic endothelial cells (BAEC), human umbilical vein endothelial cells (HUVEC), fibroblast cells, A549 human lung carcinoma cells (A549), MDA-MB231 human breast carcinoma cells (MB231), MCF7 human breast carcinoma cells (MCF7) were treated with 37 μg/ml of receptor, or buffer alone, for 24 hours. Viability of the cells was measured using the ALAMAR BLUE™ assay, which measures the capacity of cells to metabolize the ALAMAR BLUE™ dye. The ALAMAR BLUE™ assay (available from Biosource International, Camarillo, Calif.) quantitatively measures the proliferation of cell lines and can establish the relative cytotoxicity of chemical agents. The assay incorporates a fluorometric/colorimetric growth indicator based on detection of metabolic activity. The system incorporates an oxidation-reduction (redox) indicator that both fluoresces and changes color in response to chemical reduction of growth medium resulting from cell growth. This causes the redox indicator to change from its oxidized, non-fluorescent, blue form to its reduced, fluorescent, red form. Data can be collected using either fluorescence-based instrumentation (530-560 nm excitation wavelength and 590 nm emission wavelength) or absorbance-based instrumentation (570 nm and 600 nm).
BAEC and BSM cells were treated with increasing concentrations of angiocidin (0, 0.625, 1.25, 2.5, 5, 15, 26 and 37 μg/ml) for 24 hours. Cell viability was measured using the ALAMAR BLUE Tm assay. […] In contrast, BSM cells are unaffected.
The methods of Example 21 were followed, except BAEC cells were used. Additionally, TSP-1 was added at both 20 μg/ml and 5 μg/ml.
As discussed in Example 19 above, angiocidin was added to BAEC cells. Fragments of angiocidin were added as well. […] GST was used as a negative control. V36-R42, the active site of the antisecretory factor, had no effect, illustrating that angiocidin plays a different role from antisecretory factor.
Bovine aortic endothelial cells (BAEC) were cultured overnight in serum-free media containing either 37 μg/ml his-tagged angiocidin or his-tagged GST. Both angiocidin and GST were expressed in bacteria transformed with the pTrcHisA expression vector and purified on nickel affinity chromatography under non-denaturing conditions. Viability was measured by the ALAMAR BLUE™ assay.
This study examined the effect of anti-angiocidin antibody on angiocidin-mediated inhibition of BAEC viability. BAEC were cultured overnight in serum-free media containing either 5 μg/ml angiocidin, 5 μg/ml angiocidin plus 100 μg/ml control IgG, or 5 μg/ml angiocidin plus 100 μg/ml anti-angiocidin IgG. Viability was measured using the ALAMAR BLUE™ assay, described above.
The endothelial cells (BAEC) were incubated overnight 37 μg/ml of the angiocidin, fragments, and GST. Viability was measured using the ALAMAR BLUE™ assay.

[4] = tested on: human umbilical vein endothelial cells (HUVEC); test: ALAMAR BLUE cell viability assay; assay type: cell-based
Experimental: as §4
Similarly, the effect of receptor on viability of BAEC cells was compared to mouse Lewis lung carcinoma cells, using the same method.
The effect of angiocidin on HUVEC cell viability was evaluated, and FGF and TSP-1 were added to determine whether they ameliorated the angiocidin effect on cell viability. FGF (Fibroblast Growth Factor) is an endothelial cell mitogen, which promotes cell growth. […] TSP-1 was expected to reverse the inhibition of angiocidin; however, quantities added may have been insufficient to provide the correct molar ratio.

TSP-1 = TSP-1 (Homo sapiens, UniProt P07996); test: Affinity Sensor System (resonant mirror biosensor): binding to TSP-1 coupled to cuvette; conditions: peptide alone, TSP-1 immobilized in cuvette
Experimental: as §1
1) kass[R][TSP-1]=kdiss[R-TSP-1] at equilibrium, where kass is the second order rate constant for association and kdiss is the first order rate constant for dissociation
2) KD=[R][TSP-1]/[R-TSP-1]=kdiss/kass
3) [R-TSP-1]t=[R-TSP-1]eq[1-exp(-kont)], where the instrument response measure in arc seconds is proportional to receptor-TSP-1 complex R-TSP-1].
4) kon=kass[L]+kdiss where kon is the pseudo-first order rate constant for receptor TSP-1 interaction.
as §2, §3

receptor-TSP-1 complex [5] = test: Affinity Sensor System: peptide competition of receptor binding to immobilized TSP-1; conditions: peptide:receptor 1000 and 100 molar ratio
Experimental: as §1, §2, §3

B16-F10 Melanoma Cells = test: Cell adhesion to immobilized receptor peptides; assay type: cell-based, mouse; conditions: Example 12, FIG. 14
Experimental: For the adhesion assay, in a 96 well plate, duplicate wells were covered with either TSP-1 (40 μg/ml), fibronectin (40 μg/ml), or and 1% bovine serum albumin (BSA). The wells were dried out overnight and then blocked with BSA. 100 μl of a suspension containing 2×10^5 cells were plated in the protein covered wells and incubated at 37^□ C. for 20 minutes to 1 hour. The non-adherent cells were removed and the wells were washed with a Hepes buffer. The adherent cells were fixed with 2.5% glutaraldehyde for 10 minutes and stained with 0.2% Giemsa. The stain was washed off and the cells were counted in a field of 1 mm square. Cells adhering to BSA were considered background while cells adhering to fibronectin were the positive control.
The method of Example 12 was followed except the receptor peptides Val-Cys-His-Ser-Lys-Thr-Arg (SEQ ID NO: 8) and Val-Cys(Acm)-His-Ser-Lys-Thr-Arg (SEQ ID NO: […]) were immobilized on the plates. TSP-1 and fibronectin were also immobilized on plates, as well as negative control peptides (Ala-Ser-Val-Thr-Ala-Arg (SEQ ID NO: 11) and Pro-His-Ser-Arg-Asn (SEQ ID NO: 10)) and bovine serum albumin. […] This provides support for the theory that another protein may be associated with TSP-1 and its receptor, or that the receptor is released and rebound to the membrane of the cell by another protein.

Sequence of TSP-1 (P07996 19-1170): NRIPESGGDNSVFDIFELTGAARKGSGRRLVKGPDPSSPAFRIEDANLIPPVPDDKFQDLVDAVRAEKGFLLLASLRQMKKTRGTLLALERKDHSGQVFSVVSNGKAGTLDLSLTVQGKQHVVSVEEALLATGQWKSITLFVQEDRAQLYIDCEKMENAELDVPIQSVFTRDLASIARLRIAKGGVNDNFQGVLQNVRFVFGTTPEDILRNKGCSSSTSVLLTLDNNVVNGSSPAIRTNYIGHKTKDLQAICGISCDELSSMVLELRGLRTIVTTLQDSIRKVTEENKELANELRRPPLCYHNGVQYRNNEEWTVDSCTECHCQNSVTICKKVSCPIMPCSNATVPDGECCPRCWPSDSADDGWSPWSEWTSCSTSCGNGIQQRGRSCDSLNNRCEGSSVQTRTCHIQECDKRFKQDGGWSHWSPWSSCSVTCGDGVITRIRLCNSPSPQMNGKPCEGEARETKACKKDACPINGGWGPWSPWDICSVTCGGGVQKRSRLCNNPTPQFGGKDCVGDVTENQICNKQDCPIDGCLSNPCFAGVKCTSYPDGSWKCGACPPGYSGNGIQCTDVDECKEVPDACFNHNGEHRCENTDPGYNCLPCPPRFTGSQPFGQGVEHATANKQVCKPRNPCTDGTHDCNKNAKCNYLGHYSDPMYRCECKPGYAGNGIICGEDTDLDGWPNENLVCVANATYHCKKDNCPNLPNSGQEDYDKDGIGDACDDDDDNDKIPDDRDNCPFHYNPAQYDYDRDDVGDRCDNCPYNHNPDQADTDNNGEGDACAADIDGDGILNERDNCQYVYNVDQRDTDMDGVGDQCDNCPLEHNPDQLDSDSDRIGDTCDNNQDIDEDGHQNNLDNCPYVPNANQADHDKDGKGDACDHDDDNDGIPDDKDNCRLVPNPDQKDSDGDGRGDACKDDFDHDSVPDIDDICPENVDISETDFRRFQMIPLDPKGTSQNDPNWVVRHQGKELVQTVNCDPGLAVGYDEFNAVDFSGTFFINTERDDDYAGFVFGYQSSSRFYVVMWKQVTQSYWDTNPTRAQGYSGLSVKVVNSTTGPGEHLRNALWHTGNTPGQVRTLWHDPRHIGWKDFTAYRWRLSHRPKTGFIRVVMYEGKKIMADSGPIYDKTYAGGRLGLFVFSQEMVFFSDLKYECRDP

peptide competition of TSP-1 receptor binding [1]	extent of receptor binding, % of buffer control (receptor-TSP-1 complex [2]) [%]	binding to the receptor (receptor)	direct binding to immobilized TSP-1 (TSP-1)	Substance	reversal of the angiocidin inhibition of viability [3]	cell growth, factor alone ([4]; FGF 2 ng/ml, TSP-1 20 μg/ml)	reversal of the angiocidin inhibition of viability ([4]; angiocidin 37 μg/ml plus FGF 2 ng/ml or TSP-1 20 μg/ml)	inhibition of receptor binding to immobilized TSP-1 (receptor-TSP-1 complex [5])	cell adhesion to immobilized peptide (B16-F10 Melanoma Cells)
inhibited binding	47	bind to the receptor	–	Cys(Acm)-Ser-Val-Thr-Cys(Acm)-Gly (C(Acm)SVTC(Acm)G)	–	–	–	–	–
–	–	bind to the receptor	–	TSP-1: Thrombospondin, a cell adhesive protein and matrix molecule	can ameliorate some of the inhibition of angiocidin	stimulated cell growth above control	neither the addition of FGF or TSP-1 reversed the inhibition of angiocidin	–	–
–	–	–	bind directly to the immobilized TSP-1	VCHSKTR	–	–	–	inhibits binding of the receptor with the immobilized TSP-1	cause the cells to adhere to the plates, with similar affinity to the positive controls fibronectin and TSP-1
